Source: patent US20260242478A1 (published 2026)
Where no end group is shown, it is not given here.

What was measured:
[1] = target: T1, Anti-CD28 Fab (SEQ ID NOs: 696, 697); assay: phage binding ELISA; Fab-coated wells pre-incubated with CD28 antigen as competitor;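 further: clonal phage supernatants added to wells preincubated with CD28 antigen or blocking buffer only, bound phage detected with HRP-conjugated anti-M13 antibody, buffer-only wells as control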
T1 construct: In the phage ELISA the Fab was biotinylated and captured on neutravidin coated plates
T1 sequence (VH, as listed by the source, chain 1 of 2): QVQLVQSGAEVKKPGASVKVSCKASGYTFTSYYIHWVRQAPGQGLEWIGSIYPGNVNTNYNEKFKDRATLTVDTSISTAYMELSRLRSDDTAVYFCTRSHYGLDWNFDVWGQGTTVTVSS
T1 sequence (VL, as listed by the source, chain 2 of 2): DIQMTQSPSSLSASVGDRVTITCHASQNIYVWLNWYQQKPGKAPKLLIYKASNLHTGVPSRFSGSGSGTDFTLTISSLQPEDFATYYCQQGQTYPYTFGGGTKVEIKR
Experimental: (§1) Clonal phage were harvested as crude supematants and screened via standard ELISAs. […] Prior to the addition of clonal phage, wells were incubated with blocking buffer and CD28 antigen or blocking buffer alone. Without washing or aspirating, clonal phage supematants were then added to the wells and incubated for a short time. Wells were then washed followed by detection of bound phage using a horse radish conjugated anti-M13 antibody.

[2] = target: T1, Anti-CD28 Fab (SEQ ID NOs: 696, 697); assay: phage binding ELISA; biotinylated anti-CD28 Fab on neutravidin plate, bound phage detected with anti-M13 HRP
Experimental: as §1

[3] = target: T2, Anti-CD28 Fab (SEQ ID NOs: 696, 697); assay: phage binding ELISA on captured anti-CD28 Fab; competitor: CD28 antigen pre-incubated in the well;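 further: clonal phage supernatants added briefly to wells preblocked with or without CD28, bound phage detected through an HRP-linked anti-M13 antibody, wells with blocking buffer alone as comparison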
T2 construct: Biotinylated and captured on neutravidin coated plates in the phage ELISA
T2 sequence (VH, as listed by the source, chain 1 of 2): as the sequence (VH, as listed by the source, chain 1 of 2) above
T2 sequence (VL, as listed by the source, chain 2 of 2): as the sequence (VL, as listed by the source, chain 2 of 2) above
Experimental: (§2) Clonal phage were harvested as crude supematants and screened via standard ELISAs. […] Prior to the addition of clonal phage, wells were incubated with blocking buffer and CD28 antigen or blocking buffer alone. Without washing or aspirating, clonal phage supematants were then added to the wells and incubated for a short time. Wells were then washed followed by detection of bound phage using a horse radish conjugated anti-M13 antibody. Clonal phage of interest were then sent for sequence analysis.

[4] = target: T2, Anti-CD28 Fab (SEQ ID NOs: 696, 697); assay: phage binding ELISA; biotinylated anti-CD28 Fab on neutravidin plate, bound phage detected with anti-M13-HRP;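 further: clonal phage tested as crude supernatants, given a short incubation in the Fab-captured wells before bound phage were read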
Experimental: as §2

[5] = target: T3, Anti-CD28 Fab (SEQ ID NOs: 696, 697); assay: phage ELISA; captured anti-CD28 Fab pre-incubated with CD28 antigen as competitor, anti-M13-HRP
T3 construct: In the phage ELISA the Fab was biotinylated and captured on neutravidin coated plates
T3 sequence (VH, as listed by the source, chain 1 of 2): as the sequence (VH, as listed by the source, chain 1 of 2) above
T3 sequence (VL, as listed by the source, chain 2 of 2): as the sequence (VL, as listed by the source, chain 2 of 2) above
Experimental: as §1

[6] = target: T3, Anti-CD28 Fab (SEQ ID NOs: 696, 697); assay: phage ELISA; biotinylated anti-CD28 Fab on neutravidin plate, clonal phage detected with anti-M13-HRP
Experimental: as §1

[7] = target: Anti-CD28 Fab (SEQ ID NOs: 696, 697); assay: phage binding ELISA; Fab-coated wells pre-incubated with saturating CD28 antigen as competitor, anti-M13 HRP detection
Target sequence in this assay (VH, as listed by the source, chain 1 of 2): as the sequence (VH, as listed by the source, chain 1 of 2) above
Target sequence in this assay (VL, as listed by the source, chain 2 of 2): as the sequence (VL, as listed by the source, chain 2 of 2) above
Experimental: as §1

[8] = target: Anti-CD28 Fab (SEQ ID NOs: 696, 697); assay: phage binding ELISA; biotinylated anti-CD28 Fab on neutravidin plate, clonal phage supernatant, anti-M13 HRP detection;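 further: wells pretreated with blocking buffer, either plus or minus CD28 antigen, then given crude phage supernatant briefly without washing in between, then washed before anti-M13 HRP readout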
Target sequence in this assay (VH, as listed by the source, chain 1 of 2): as the sequence (VH, as listed by the source, chain 1 of 2) above
Target sequence in this assay (VL, as listed by the source, chain 2 of 2): as the sequence (VL, as listed by the source, chain 2 of 2) above
Experimental: as §1

Row | Binder | Anti-CD28 Fab signal in the presence of CD28 [1] | Anti-CD28 Fab (SEQ ID NOs: 696, 697) signal [2] | Anti-CD28 Fab signal in the presence of CD28 [3] | Anti-CD28 Fab (SEQ ID NOs: 696, 697) signal [4] | further results
1 | RCRAGFSYNWPYCM (peptide, not shown: large carriers, Clonal phage of the Peptide-92 optimisation library, tested as crude phage supernatant) [Phage-1488] | 0.06 | 1.72 |  |  | 
2 | SCSAGAAWPWPWCL (tested as crude phage supernatant) [Phage-1532] |  |  | 0.08 | 1.55 | 
3 | PCSAGATYAWLYCV (tested as crude clonal phage supernatant) [Phage-1458 peptide (SEQ ID NO: 1754)] |  |  |  |  | Phage binding ELISA, Anti-CD28 Fab signal in the presence of CD28 [5]: 0.06; Phage binding ELISA, Anti-CD28 Fab signal [6]: 1.81
4 | WCAAVFSYSWPLCL (peptide, not shown: large carriers, cysteine pairing not given here; also: displayed as fusion to phage pIII, pIII and linker not given here, Clonal phage of the Peptide-92 optimisation library, tested as crude phage supernatant) [Phage-1479] | 0.06 | 1.75 |  |  | 
5 | RCSFRFITLAEACV (also called Peptide-92 library clone) [Phage-1577] |  |  |  |  | Anti-CD28 Fab signal in the presence of CD28 [7]: 0.08; Anti-CD28 Fab (SEQ ID NOs: 696, 697) signal [8]: 1.41
6 | MCAAGAMYAWPTCL (peptide, not shown: large carriers, cysteine pairing not given here; also: fused to phage pIII protein, pIII and linker not given here, Clonal phage of the Peptide-92 optimisation library, tested as crude phage supernatant) [Phage-1475] | 0.09 | 1.75 |  |  | 
7 | SCSAGAMYPWPMCL (tested as crude phage supernatant) [Phage-1540] |  |  | 0.06 | 1.53 | 
8 | TCSAGAMYPWPWCV (peptide, not shown: large carriers, cysteine pairing not given here; also: fused to phage pIII protein, pIII and linker not given here, Clonal phage of the Peptide-92 optimisation library, tested as crude phage supernatant) [Phage-1478] | 0.08 | 1.75 |  |  | 
9 | SCSAGASLQLSQCF (also called Peptide-92 library clone) [Phage-1576] |  |  |  |  | Anti-CD28 Fab signal in the presence of CD28 [7]: 0.05; Anti-CD28 Fab (SEQ ID NOs: 696, 697) signal [8]: 1.41
10 | LCAEGFDYSWPMCL (tested as crude phage supernatant) [Phage-1533] |  |  | 0.08 | 1.55 | 
11 | TCSAGATYVWPDCF (tested as crude phage supernatant) [Phage-1542] |  |  | 0.09 | 1.52 | 
12 | QCAAGAMWTWPACF (tested as crude phage supernatant) [Phage-1537] |  |  | 0.06 | 1.54 | 
13 | TCAAGAAWPWPHCL (peptide, not shown: large carriers, cysteine pairing not given here; also: displayed as fusion to phage pIII, pIII and linker not given here, Clonal phage of the Peptide-92 optimisation library, tested as crude phage supernatant) [Phage-1482] | 0.06 | 1.73 |  |  | 
14 | TCSAVFSYTWSNCF (tested as crude phage supernatant) [Phage-1536] |  |  | 0.06 | 1.54 | 
15 | QCAAGASYPWPVCL (tested as crude clonal phage supernatant) [Phage-1455 peptide (SEQ ID NO: 1751)] |  |  |  |  | Phage binding ELISA, Anti-CD28 Fab signal in the presence of CD28 [5]: 0.07; Phage binding ELISA, Anti-CD28 Fab signal [6]: 1.82
16 | TCAAGATWDWPLCF (tested as crude phage supernatant) [Phage-1546] |  |  | 0.06 | 1.51 | 
17 | TCAAGATYPWPSCL (peptide, not shown: large carriers, Clonal phage of the Peptide-92 optimisation library, tested as crude phage supernatant) [Phage-1485] | 0.05 | 1.73 |  |  | 
18 | SCKAGAPYYWPGCF (tested as crude phage supernatant) [Phage-1535] |  |  | 0.08 | 1.54 | 
19 | SCAAGAMWPWPVCV (tested as crude clonal phage supernatant) [Phage-1459 peptide (SEQ ID NO: 1755)] |  |  |  |  | Phage binding ELISA, Anti-CD28 Fab signal in the presence of CD28 [5]: 0.06; Phage binding ELISA, Anti-CD28 Fab signal [6]: 1.8
20 | MCSAGATYPWPMCL (peptide, not shown: large carriers, Clonal phage of the Peptide-92 optimisation library, tested as crude phage supernatant) [Phage-1484] | 0.06 | 1.73 |  |  | 

Row | Binder | Anti-CD28 Fab signal in the presence of CD28 [1] | Anti-CD28 Fab (SEQ ID NOs: 696, 697) signal [2] | Anti-CD28 Fab signal in the presence of CD28 [3] | Anti-CD28 Fab (SEQ ID NOs: 696, 697) signal [4] | further results
21 | TCAAGAMWQWPVCL (tested as crude clonal phage supernatant) [Phage-1457 peptide (SEQ ID NO: 1753)] |  |  |  |  | Phage binding ELISA, Anti-CD28 Fab signal in the presence of CD28 [5]: 0.06; Phage binding ELISA, Anti-CD28 Fab signal [6]: 1.81
22 | TCAAGAMWNWPQCY (tested as crude phage supernatant) [Phage-1539] |  |  | 0.07 | 1.54 | 
23 | GCAAGFHYPWPLCL (peptide, not shown: large carriers, cysteine pairing not given here; also: displayed as fusion to phage pIII, pIII and linker not given here, Clonal phage of the Peptide-92 optimisation library, tested as crude phage supernatant) [Phage-1480] | 0.08 | 1.74 |  |  | 
24 | TCAAGASWEWPLCF (tested as crude phage supernatant) [Phage-1541] |  |  | 0.08 | 1.52 | 
25 | QCAAGAMWTWPACF (peptide, not shown: large carriers, Clonal phage of the Peptide-92 optimisation library, tested as crude phage supernatant) [Phage-1483] | 0.07 | 1.73 |  |  | 
26 | TCSAGATYSWPFCF (tested as crude phage supernatant) [Phage-1534] |  |  | 0.07 | 1.55 | 
27 | TCAAGAAWEWPICF (tested as crude phage supernatant) [Phage-1538] |  |  | 0.06 | 1.54 | 
28 | TCEAVFIYSWPFCL (tested as crude phage supernatant) [Phage-1543] |  |  | 0.08 | 1.52 | 
29 | TCAAGAVWGWPLCF (peptide, not shown: large carriers, Clonal phage of the Peptide-92 optimisation library, tested as crude phage supernatant) [Phage-1486] | 0.06 | 1.73 |  |  | 
30 | TCSAGAHYEWPYCL (tested as crude clonal phage supernatant) [Phage-1454 peptide (SEQ ID NO: 1750)] |  |  |  |  | Phage binding ELISA, Anti-CD28 Fab signal in the presence of CD28 [5]: 0.11; Phage binding ELISA, Anti-CD28 Fab signal [6]: 1.82
31 | TCSAGAHYPWPICL (also called Peptide-92 library clone) [Phage-1578] |  |  |  |  | Anti-CD28 Fab signal in the presence of CD28 [7]: 0.08; Anti-CD28 Fab (SEQ ID NOs: 696, 697) signal [8]: 1.41
32 | TCAAGASFPWPWCL (peptide, not shown: large carriers, cysteine pairing not given here; also: fused to phage pIII protein, pIII and linker not given here, Clonal phage of the Peptide-92 optimisation library, tested as crude phage supernatant) [Phage-1476] | 0.06 | 1.75 |  |  | 
33 | WCAAGATWPWPLCI (peptide, not shown: large carriers, Clonal phage of the Peptide-92 optimisation library, tested as crude phage supernatant) [Phage-1489] | 0.17 | 1.7 |  |  | 
34 | LCAEGADYPWPMCL (tested as crude phage supernatant) [Phage-1545] |  |  | 0.08 | 1.51 | 
35 | TCAAGAHYAWPECF (peptide, not shown: large carriers, Clonal phage of the Peptide-92 optimisation library, tested as crude phage supernatant) [Phage-1487] | 0.06 | 1.72 |  |  | 
36 | LCKPGVPYQWPTCF (tested as crude clonal phage supernatant) [Phage-1456 peptide (SEQ ID NO: 1752)] |  |  |  |  | Phage binding ELISA, Anti-CD28 Fab signal in the presence of CD28 [5]: 0.05; Phage binding ELISA, Anti-CD28 Fab signal [6]: 1.82
37 | LCEEFFHYSWPVCL (peptide, not shown: large carriers, cysteine pairing not given here; also: displayed as fusion to phage pIII, pIII and linker not given here, Clonal phage of the Peptide-92 optimisation library, tested as crude phage supernatant) [Phage-1481] | 0.06 | 1.74 |  |  | 
38 | LCSAGAMWQWPTCL (tested as crude phage supernatant) [Phage-1544] |  |  | 0.05 | 1.51 | 
39 | SCAAVFPYPWPPCF (peptide, not shown: large carriers, cysteine pairing not given here; also: fused to phage pIII protein, pIII and linker not given here, Clonal phage of the Peptide-92 optimisation library, tested as crude phage supernatant) [Phage-1477] | 0.06 | 1.75 |  |  | 
40 | SCAAGAAYPWPACL (tested as crude clonal phage supernatant) [Phage-1460 peptide (SEQ ID NO: 1756)] |  |  |  |  | Phage binding ELISA, Anti-CD28 Fab signal in the presence of CD28 [5]: 0.06; Phage binding ELISA, Anti-CD28 Fab signal [6]: 1.8
